Values quoted from earlier work, collected in article PMC7314768.

Assays:
Cys145 = Cys145 (UniProt position 3385, FLNGSCGSVGF)
His41 = His41 (UniProt position 3281, VYCPRHVICTA)

**Q.** With “3C-like main protease (3CL Mpro, 3CLpro, nsp5) of SARS coronavirus (Severe acute respiratory syndrome coronavirus (SARS-CoV))” as the substance, how does the pKa (Cys145) read?
**A.** The pKa was 8.0 ± 0.3.

**Q.** What about the pKa (His41) of the same substance?
**A.** Its pKa is 6.3 ± 0.1.
